The source of these data is US12590288B2, “Method of treating an inflammatory disease by administering an agent which binds a surface receptor on a tuft cell that induces an ILC class 2 inflammatory response” (The Broad Institute, Inc., priority 2017, dated 2026).

Assay [1] deals with cultured epithelia from proximal or distal trachea. Briefly: rIL-13-induced mucous metaplasia in air-liquid interface cultured tracheal epithelia. The format is cell-based, mouse. To be noted: proximal vs distal tracheal epithelium ALI cultures, rIL-13 vs control, 72 hours. The method, then: Transwell cultures. Cells were cultured and expanded in complete SAGM (small airway epithelial cell growth medium; Lonza, CC-3118) containing TGF-β/BMP4/WNT antagonist cocktails and 5 μM Rock inhibitor Y-27632 (Selleckbio, S1049). To initiate air-liquid interface (ALI) cultures, airway basal stem cells were dissociated from mouse tracheas and seeded onto transwell membranes. After reaching confluence, media was removed from the upper chamber. Mucociliary differentiation was performed with PneumaCult-ALI Medium (StemCell, 05001). Differentiation of airway basal stem cells on an air-liquid interface was followed by directly visualizing beating cilia in real time after 10-14 days. […]
Statistical analysis of proximodistal mucous metaplasia. For the analysis in FIG. 38H,I, the extent of goblet cell hyperplasia was assessed using counts of Muc5ac^+ goblet cells, normalized to counts of GFP^+ ciliated cells. To quantify differences in the count values between the samples in different conditions (n=6, Foxj 1-GFP mice), Applicants fit a negative binomial regression using the ‘glm.nb’ function from the ‘MASS’ package in R. Pairwise comparisons between means for each condition were computed using post hoc tests and p-values were adjusted for multiple comparisons using Tukey's HSD, implemented using the function ‘pairs’ from the ‘emeans’ package in R.

Assay [2] deals with small intestinal organoids. Briefly: RANKL-mediated in-vitro differentiation of M cells in intestinal organoids (scRNA-seq). The format is cell-based, mouse. To be noted: 5,434 cells from organoids treated with RANKL for 0, 3 and 6 days. As for the experimental part:
Organoid cultures. Following crypt isolation from the whole small intestine^142, the single cell suspension was resuspended in Matrigel® (BD Bioscience) with 1 μM Jagged-1 peptide (Ana-Spec). Roughly 300 crypts embedded in 25 μl of Matrigel® were seeded onto each well of a 24-well plate. Once solidified, the Matrigel® was incubated in 600 μl culture medium (Advanced DMEM/F12, Invitrogen) with streptomycin/penicillin and glutamax and supplemented with EGF (100 ng/mL, Peprotech®), R-Spondin-1 (600 ng/mL, R&D), Noggin (100 ng/mL, Peprotech®), Y-276432 dihydrochloride monohydrate (10 μM, Tocris™)), N-acetyl-1-cysteine (1 μM, Sigma-Aldrich), N2 (1×, Life Technologies), B27 (1×, Life Technologies) and Wnt3A (25 ng/mL, R&D Systems). Fresh media was replaced on day 3, and organoids were passaged by dissociation with TrypLE and resuspended in new Matrigel® on day 6 with a 1:3 split ratio. For selected experiments, organoids were additionally treated with RANKL (100 ng/mL, Biolegends). For T helper cell co-culture experiments, organoids were cultured with Th1, Th2, Th17 or iTregs. Roughly 10,000 T helper cells were added to each well of 500 organoids and were supplemented either to the medium or suspended in the Matrigel®. Treated organoids were dissociated and subjected to scRNA-seq using both methods. […]

Where “and” joins values, the source holds several entries; their conditions need not be identical. Equal values may be shown once.

B1: rIL-13: recombinant murine IL-13 used to induce mucous metaplasia in cultured airway epithelium (protein, UniProt P20109 19-131, looked up)
Interleukin-13: APGPVPRSVSLPLTLKELIEELSNITQDQTPLCNGSMVWSVDLAAGGFCVALDSLTNISNCNAIYRTQRILHGLCNRKAPTTVSSLPDTKIEVAHFITKLLSYTKQLFRHGPF
As for B1, the “induction of goblet cell differentiation (Muc5ac+ goblet cells normalized to GFP+ ciliated cells)” value in assay [1] is on record as “much higher induction of goblet cell differentiation in the distal epithelium”.

B2: RANKL: cytokine added to small intestinal organoids as ex vivo model of M cell differentiation (protein, UniProt O35235 139-316, looked up)
Tumor necrosis factor ligand …: FSGAPAMMEGSWLDVAQRGKPEAQPFAHLTINAASIPSGSHKVTLSSWYHDRGWAKISNMTLSNGKLRVNQDGFYYLYANICFRHHETSGSVPTDYLQLMVYVVKTSIKIPSSHNLMKGGSTKNWSGNSEFHFYSINVGGFFKLRAGEEISIQVSNPSLLDPDQDATYFGAFKVQDID
As for B2, in assay [2], the “differentiated M cells identified by unsupervised clustering” value is 384 cells and 378 cells.
